The target of this experiment is T1, FimL fused to T18 or T25 (BACTH) (P. aeruginosa PAO1, UniProt Q9I2S3 1-562).
T1 sequence: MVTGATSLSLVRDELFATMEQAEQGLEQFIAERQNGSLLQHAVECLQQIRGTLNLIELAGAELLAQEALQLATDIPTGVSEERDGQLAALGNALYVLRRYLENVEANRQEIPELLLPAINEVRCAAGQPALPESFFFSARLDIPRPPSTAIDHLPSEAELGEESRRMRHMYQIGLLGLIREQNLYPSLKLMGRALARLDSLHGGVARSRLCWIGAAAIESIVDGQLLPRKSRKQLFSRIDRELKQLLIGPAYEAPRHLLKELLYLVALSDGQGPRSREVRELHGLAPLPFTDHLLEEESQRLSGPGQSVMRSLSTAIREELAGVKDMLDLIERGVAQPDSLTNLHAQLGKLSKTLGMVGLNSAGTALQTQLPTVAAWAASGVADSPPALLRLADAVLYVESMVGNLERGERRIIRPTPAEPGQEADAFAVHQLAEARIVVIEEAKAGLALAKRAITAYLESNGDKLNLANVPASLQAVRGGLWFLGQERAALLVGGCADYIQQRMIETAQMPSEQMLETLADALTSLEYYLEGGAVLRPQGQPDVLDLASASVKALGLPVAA
The experiment in a line: two-hybrid.

Consider one molecule from paper PMC4980298 (Molecular microbiology, 2016).

B1: PilG fused to T18 or T25 (BACTH) (natural protein)
chain: MEQQSDGLKVMVIDDSKTIRRTAETLLKKVGCDVITAIDGFDALAKIADTHPNIIFVDIMMPRLDGYQTCALIKNNSAFKSTPVIMLSSKDGLFDKAKGRIVGSDQYLTKPFSKEELLGAIKAHVPSFTPVDAVS
B1: the “fold increase in β-galactosidase activity over controls” value is around 20 fold.
